This is an account of results in patent publication US20260258115A1 (MAPP BIOPHARMACEUTICAL, published 2026).

The target of one test is RSV F on RSV-A2 virus (Respiratory Syncytial Virus (RSV-A2), UniProt P03420 26-574). Briefly: cell-based or functional assay.
Test [1] has as its target RSV prefusion F (preF), DS-Cav1 (Respiratory Syncytial Virus, UniProt P03420 26-513). In words: BLI, IgG on anti-human IgG sensor, 100 nM antigen, 1:1 fit. On the technique in general: Biolayer interferometry detects binding as a change in optical thickness at a sensor tip.
Test [2] has as its target RSV postfusion F (postF), F ΔFP (Respiratory Syncytial Virus, UniProt P03420 26-513). The test is described as above.

B1: ADI-41537 (antibody, V domains shown)
VH: EVQLLESGGGLVQPGGSLRLSCAASEFTFSRYPMSWVRQAPGKGLEWVSGISVSGDSTYYADSVKGRLTISRDNSKNTLYLQMNSLRAEDTAVYYCAIDHYDTSGYYGMDVWGQGTTVTVSS
VL: DIRLTQSPLSLPVTPGEPASISCRSSRSLLRSNGYNYLDWYLQKPGQSPQLLIYLGSNRASGVPDRFSGSGSGTDFTLKISRVEAEDVGVYYCMQALQSSYTFGQGTKLEIK
Regarding B1, the “Neutralization IC50 (RSV subtype A)” value with RSV F on RSV-A2 virus was over 25 µg/mL. In addition, the values for the Kd in test [1] and in test [2] were 2.58 nM and 0.488 nM, respectively.

B2: ADI-41528 (antibody, V domains shown)
VH: EVQLVESGGGVVQPGRSLRLSCAASGFTFSSYAMHWVRQAPGKGLEWVAVISFDGSSDYYADSVKGRFTISRDSSKNTLYLRMNSLRAEDTAVYYCARRAVEYSIYNNDAFDVWGQGTTVTVSS
VL: SYELTQPPSVSVSPGQTASITCSGDKLGNKFTFWYQQKSGQSPVLVIYQETKRPSGIPERFSGSNSGNTATLTISGTQSMDEADYYCQAWDSSTAFFGGGTKLTVL
notes: also called Ab 800; Antibody Number 800
Turning to B2, in the test with RSV F on RSV-A2 virus, the “Neutralization IC50 (RSV subtype A)” value was over 25 µg/mL. Besides, the Kd worked out at 2.28 nM in test [1] and 0.348 nM in test [2].

B3: ADI-41533 (antibody, V domains shown)
VH: QVQLVESGGGVVQPGRSLRLSCAASGFTFSSYAMHWVRQAPGKGLEWLAVISFDGSSEFYGDSVRGRFTISRDNSKNTLYLRVNSLRAEDTALYYCARRSLKYSMYNNDAFDVWGQGTTVTVSS
VL: QPVLTQPPSVSVSPGQTASITCSGDKLGNKFTFWYQQKSGQSPVLVIYQESQRPSGIPERFSGSNSGNTATLTIRGAQAMDEADYYCQAWDSSTAFFGGGTKLTVL
Regarding B3, the “Neutralization IC50 (RSV subtype A)” value with RSV F on RSV-A2 virus is over 25 µg/mL. For the same molecule, the dissociation constant (Kd) in test [1] was 1.47 nM; in test [2], 0.423 nM.

B4: ADI-41534 (antibody, V domains shown)
VH: QVQLVQSGGGVVQPGRSLRLSCAASGFTFSNYAMHWVRQAPGKGLEWVTLISYDGSAQDYADSVKGRITISRDNSKNTLYLQMSSLRPEDTAVYYCARYYCTNDVCSSSALDIWGQGTTVTVSS
VL: SYELIQPPSVSVSPGQTASITCSGDKLGNKFTCWYQQKPGQSPVLVIYQDSKRPSGIPERFSGSNSGNTATLTISGTQAMDEADYYCQAWDSSTVVFGGRTKLTVL
notes: also called Ab 806; Antibody Number 806
With B4, the “Neutralization IC50 (RSV subtype A)” value with RSV F on RSV-A2 virus is over 25 µg/mL. Moreover, the Kd in test [1] came out at 3.31 nM; in test [2] it was 0.472 nM.

B5: ADI-41535 (antibody, V domains shown)
VH: QVTLKESGPALVKPTQTLTLTCTFSGFSLSTSRMCVSWIRQSPGKALEWLARIDWDDDKFFSTSLKTRLTISKDTSRNQVVLTMTNMDPVDTATYYCARTTVYASGGYYLYYFDYWGQGTLVTVSS
VL: DIQLTQSPSSLPASVGDRVTITCRASQRIASYLNWYQQKPGKAPKVLIYAASNLQSGVPSRFSGSGSGTDFTLTINSLQPEDFATYYCQQSYTTPWTFGQGTKVEIK
In the case of B5, in the test with RSV F on RSV-A2 virus, the “Neutralization IC50 (RSV subtype A)” value was over 25 µg/mL. Moreover, the Kd was 1.93 nM in test [1] and 0.476 nM in test [2].

B6: ADI-41545 (antibody, V domains shown)
VH: QVQLVESGPGLVKPSETLSLTCTVSGGSISRYYWSWIRQSPGKGLEWIGYIYHSVITNYNPSLKSRVTISIDMSKNQFSLKLSSVTAADTAVYYCASRPLINGYGPDNYFDYWGQGTLVTVSS
VL: SYVLTQPPSVSVAPGQTARITCGGNNIGSKSVHWYQRKPGQAPVLVVYDDSDRPSGIPERFSGSNSGNTATLTIIRVEAGDEADYYCQVWDNSSDHPVFGGGTKLTVL
notes: also called Ab 817; Antibody Number 817
For the molecule B6, the “Neutralization IC50 (RSV subtype A)” value with RSV F on RSV-A2 virus is over 25 µg/mL. Besides, the equilibrium dissociation constant (Kd) in test [1] was 1.36 nM; in test [2], 0.825 nM.

B7: ADI-41538 (antibody, V domains shown)
VH: EVQLVESGGGLVKPGGSLRLSCAASGFTLSTYGVNWVRQAPGKGLEWVSSISSSGNNIHYADSVKGRFTVFRDNAKHSMYLQMNSLRAEDTAVYYCARSLDYSNYYYYYGLDVWGQGTTVTVSS
VL: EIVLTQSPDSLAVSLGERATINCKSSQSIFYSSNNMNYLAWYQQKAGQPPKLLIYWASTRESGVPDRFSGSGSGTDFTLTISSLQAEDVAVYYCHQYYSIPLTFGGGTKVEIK
notes: also called Ab 810; Antibody Number 810
In the case of B7, the “Neutralization IC50 (RSV subtype A)” value in the test with RSV F on RSV-A2 virus is over 25 µg/mL. For the same molecule, the Kd is 3.44 nM in test [1] and 0.587 nM in test [2].

B8: ADI-41529 (antibody, V domains shown)
VH: EVQLVQSGAEVRRPGSSVKVSCKASGGTLDTDSISWVRQVPGQGLVWVGGVIPILGSVVYARKFQGRVTITADGSTSTAYMELRSLRSEDTAMYYCASQFYDFRRGYFDAFDIWGQGTTVTVSS
VL: ETTLTQSPGILSLSPGERATLSCRATQTVISNYINWYQQKPGQAPRLLIYGASSRATGIPDRFSGSGSGTDFTLTISRLEPEDFAVYYCQRYDSSPPGFTFGPGTKVDIK
Turning to B8, in the test with RSV F on RSV-A2 virus, the “Neutralization IC50 (RSV subtype A)” value was over 25 µg/mL. Further, the values for the Kd in test [1] and in test [2] were 1.03 nM and 0.351 nM, respectively.

B9: ADI-41536 (antibody, V domains shown)
VH: EVQLVESGAGLLKPSETLSLTCVVYGGSFSGYYWSWIRQPPGKGLEWVGDINHSTTTNYNPSLESRITISIDTSKNQFSLNLSSVTAADSAVYYCARGPKECTSSSCDRFGVDYFYYGMDVWGRGTTVTVSS
VL: QSVLTQPPSVSGAPGQRVTISCTGSSANIGAGYDVHWYQQFPGTAPKLLIFGNSNRPSGVPDRFSGSKSGTSASLAITGLQAEDEADYYCQSYDGTLGGWVFGGGTQLTVL
notes: also called Ab 808; Antibody Number 808
Consider B9, for which the “Neutralization IC50 (RSV subtype A)” value in the test with RSV F on RSV-A2 virus was over 25 µg/mL. Further, the dissociation constant Kd in test [1] is 3.05 nM; in test [2], 0.476 nM.

B10: ADI-41541 (antibody, V domains shown)
VH: QITLKESGPTLVKPTQTLTLTCTFSGFSLSSSGVGVGWIRQPPGKALEWLALIYWDDDKRYSPSLKSRLTITKDTSKNQVVLTMTNMDPVDTATYYCAHRGPYYYDMSGYYYEAFDIWGQGTTVTVSS
VL: SYELMQPPSVSVAPGQTARITCGGNNIGSKGVHWYQQKPGQAPVLVVYDDNDRPSGIPERFSGSNSGNTATLTISRVEAGDEADYYCQVWDSSSDHHYVFGTGTKVTVL
notes: also called Ab 813; Antibody Number 813
For B10, in the test with RSV F on RSV-A2 virus, the “Neutralization IC50 (RSV subtype A)” value is over 25 µg/mL. Moreover, the Kd worked out at 2.47 nM in test [1] and 0.776 nM in test [2].

B11: ADI-41547 (antibody, V domains shown)
VH: QVQLVQSGAEVKKPGSSVKVSCKASGGSFSSNTINWVRQAPGQGLEWMGGIIPVFETPNYAQKFQGRVSFTADESTRTAYMELSSLRSEDTAVYFCARQGMSYYDTNGNYYVGWFDTWGQGTLVTVSS
VL: EIVLTQSPGTLSLSPGERATLSCRASQSLNNNYLAWYQRKPGQAPRLLIYGAGAFSRATGIPDRFSGSGSGTDFTLTISRLEPEDFALYYCQQYGSSPLTFGQGTRLEIK
notes: also called Ab 819; Antibody Number 819
On to B11, for which the “Neutralization IC50 (RSV subtype A)” value in the test with RSV F on RSV-A2 virus is 0.05 µg/mL. Moreover, the dissociation constant (Kd) amounted to 3.19 nM in test [1] and 1.08 nM in test [2].

B12: ADI-41532 (antibody, V domains shown)
VH: QVQLVQSGAEVKKPGESLKISCKGSGYSFTSSWIGWVRQMPGKGLEWMGIIYPGDSDTRYSPSIQGRVTISADKSITTAYLQWSSLKASDTATYYCAKFGGYADAYFYHGMDVWGQGTTVTVSS
VL: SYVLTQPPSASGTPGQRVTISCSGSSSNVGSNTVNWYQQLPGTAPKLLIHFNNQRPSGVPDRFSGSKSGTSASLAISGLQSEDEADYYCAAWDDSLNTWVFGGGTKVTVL
B12: the “Neutralization IC50 (RSV subtype A)” value in the test with RSV F on RSV-A2 virus was over 25 µg/mL. Also, the values for the equilibrium dissociation constant (Kd) in test [1] and in test [2] were 1.92 nM and 0.392 nM, respectively.

B13: ADI-41543 (antibody, V domains shown)
VH: QVQLVQSGAEVKKPGASVRVSCKASGYTLTGYYIHWLRQAPGQGLEWVGRINPNTGETSYSQKFQGRVIMTRDTSVSTAYVDLSRLRSRDTAVYFCARSDVMITVTAEGDFSYYYYRFDVWGQGTTVTVSS
VL: DIVMTQTPLSLPVTPGEPASISCRSSQSLLHSNGHNYLDWYLQKPGQSPQLLIYLGSIRASGVSDRFSGSGSGTDFTLKISRVEAEDVGIYYCMQALQTPHFGGGTKVEIK
As for B13, in the test with RSV F on RSV-A2 virus, the “Neutralization IC50 (RSV subtype A)” value is over 25 µg/mL. Further, the dissociation constant (Kd) in test [1] is 2.9 nM; in test [2], 0.796 nM.

B14: ADI-41539 (antibody, V domains shown)
VH: QVQLVESGAEVKKPGASVKVSCKASGYNFIDYGISWVRQAPGQGLEWVGWISAYNGNTNYAQKLQGRVTMTTDTSTNTAYMELRSLRSDDTALYYCARDSSSLHPTYYYYYPMDVWGQGTTVTVSS
VL: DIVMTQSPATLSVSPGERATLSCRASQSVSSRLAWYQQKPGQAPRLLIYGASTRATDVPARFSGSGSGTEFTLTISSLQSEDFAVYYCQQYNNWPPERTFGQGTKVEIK
Consider B14, for which, in the test with RSV F on RSV-A2 virus, the “Neutralization IC50 (RSV subtype A)” value was determined as 0.18 µg/mL. The Kd in test [1] was found to be 3.38 nM; in test [2], 0.615 nM.

B15: ADI-41540 (antibody, V domains shown)
VH: QVQLQQWGAGLLKPSETLSLTCGVYGGSFTGYQWSWIRQSPGKGLEWIGDIDHGGNTNYRPSLKSRIITSVNMSKKEFSLKLASVTAADTAVYYCARGVGFLEFSGGPTGRRRNWFDSWGQGTLVTVSS
VL: DIQLTQSPGTLSLSPGEGATLSCRASQSVGGSYLAWYQQRPGQAPRLLIYGASNRAADSPDRFSGSGSATDFTLTISRLEPEDFAVYYCQQYGSSPWTFGQGTKVEIK
In the case of B15, the “Neutralization IC50 (RSV subtype A)” value in the test with RSV F on RSV-A2 virus is over 25 µg/mL. The Kd in test [1] was found to be 3.54 nM; in test [2], 0.686 nM.

B16: ADI-41548 (antibody, V domains shown)
VH: QVQLQQWGPGLVKPSETLSLTCTVSGASITSHYWSWLRQPAGKGLEWIGRFYPSGTTEKTPSLKSRVTLSVDTSKNHFSLKLTSVTAADTAVYYCARDSYDDIAGSYEYYFADWGQGTLVTVSS
VL: EIVLTQSPATLSVSPGERATLSCRASQSVSSNLAWYQQKPGQAPRLLIYDISTRATGVPARFSGSGSGTEFTLTITSLQSEDFTVYYCQQYNNWPPTFGQGTKLEIK
notes: also called Ab 820; Antibody Number 820
As to B16, the “Neutralization IC50 (RSV subtype A)” value with RSV F on RSV-A2 virus was over 25 µg/mL. Also, the figures for the equilibrium dissociation constant (Kd) in test [1] and in test [2] were 2.56 nM and 1.45 nM, respectively.

B17: ADI-41530 (antibody, V domains shown)
VH: QVQLVESGAEVKKPGASVKVSCRASGYTFSAYDINWVRQAPGQGLEWVGWMNPNSGNTGYALRFQGRVTMTRDTSINTAYMELSSLRSDDTAVYYCAAQLWYPNWGQGTLVTVSS
VL: SYELTQPPSVSVGLGQTASITCGGNNIGSKSVHWYQQKPGQAPTLVIYRDTNRPSGIPERFSGSNSENTATLTISRAQAGDEADFYCQVSDNYSWVFGGGTKLTVL
notes: also called Ab 802; Antibody Number 802
For B17, the “Neutralization IC50 (RSV subtype A)” value in the test with RSV F on RSV-A2 virus was over 25 µg/mL. Further, the Kd in test [1] was 1.91 nM; in test [2], 0.355 nM.

B18: ADI-41531 (antibody, V domains shown)
VH: EVQLLESGGDLVQPGGSLRLSCAASGFTFFSYALNWVRRTPGKGLEWVSGISGSGGSTYYADSVKGRFTISRDNSKSTLYLQMNSLKVDDTAVYFCAKDFQHDYGDPYRSYYFDHWGQGTLVTVSS
VL: DIQLTQSPSSLAASVGDRVTITCQASRDIRKSLNWYQVKPGKAPKLLISDASYLETGVPPRFSGSGFGTHFTFTISSLQPEDIATYYCQQYDNLPPPTFGGGTKVDIK
notes: also called Ab 803; Antibody Number 803
B18: in the test with RSV F on RSV-A2 virus, the “Neutralization IC50 (RSV subtype A)” value was over 25 µg/mL. Besides, the Kd in test [1] is 2.08 nM; in test [2], 0.377 nM.

Broadly, the Kd is the free concentration of one partner at which half of the binding sites on the other are occupied at equilibrium, for simple one-to-one binding. Read a high Kd as lower affinity.
